Assay results reported in paper PMC4899126.

How the values were obtained:
[1] = biological target: E.r. RT domain (group II intron maturase from Eubacterium rectale M104/1, residues 1-293) (Eubacterium rectale M104/1); assay: AUC
[2] = biological target: E.r. RT domain (group II intron maturase from Eubacterium rectale M104/1, residues 1-293) (Eubacterium rectale M104/1); assay: SEC-MALS
[3] = biological target: E.r. RT domain (group II intron maturase from Eubacterium rectale M104/1, residues 1-293) (Eubacterium rectale M104/1); assay: AUC; remark: listed apart in the source
[4] = biological target: E.r. RT domain (group II intron maturase from Eubacterium rectale M104/1, residues 1-293) (Eubacterium rectale M104/1); assay: SEC-MALS; remark: listed apart in the source

Measured: stoichiometry N

E.r. RT domain (group II intron maturase from Eubacterium rectale M104/1, residues 1-293) (domain or fragment)
2: all assays above
